Test results as given in publication PMC5113206 (RNA, 2016).
Values belong to the binder of their own block, whether it stands above or below them.

What was measured:
Assay in all cases: pull-down
[1] = target: T1, GST-DHX29 (248–594) (UniProt Q7Z478 248-594)
T1 sequence (looked up): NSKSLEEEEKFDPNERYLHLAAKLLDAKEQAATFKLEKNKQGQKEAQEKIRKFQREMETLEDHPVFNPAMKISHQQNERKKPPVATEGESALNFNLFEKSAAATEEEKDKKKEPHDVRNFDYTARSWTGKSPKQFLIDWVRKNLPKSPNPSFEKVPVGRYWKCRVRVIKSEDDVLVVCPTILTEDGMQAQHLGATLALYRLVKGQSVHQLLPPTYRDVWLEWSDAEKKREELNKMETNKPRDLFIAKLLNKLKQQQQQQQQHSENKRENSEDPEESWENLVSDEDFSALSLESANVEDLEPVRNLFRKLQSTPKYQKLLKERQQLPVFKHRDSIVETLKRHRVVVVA

[2] = target: GST-eIF3a (783–1382) (human, UniProt Q14152 783-1382)
[3] = target: T2, DHX29 (FL), His-tagged (UniProt Q7Z478 1-1369)
T2 sequence (looked up): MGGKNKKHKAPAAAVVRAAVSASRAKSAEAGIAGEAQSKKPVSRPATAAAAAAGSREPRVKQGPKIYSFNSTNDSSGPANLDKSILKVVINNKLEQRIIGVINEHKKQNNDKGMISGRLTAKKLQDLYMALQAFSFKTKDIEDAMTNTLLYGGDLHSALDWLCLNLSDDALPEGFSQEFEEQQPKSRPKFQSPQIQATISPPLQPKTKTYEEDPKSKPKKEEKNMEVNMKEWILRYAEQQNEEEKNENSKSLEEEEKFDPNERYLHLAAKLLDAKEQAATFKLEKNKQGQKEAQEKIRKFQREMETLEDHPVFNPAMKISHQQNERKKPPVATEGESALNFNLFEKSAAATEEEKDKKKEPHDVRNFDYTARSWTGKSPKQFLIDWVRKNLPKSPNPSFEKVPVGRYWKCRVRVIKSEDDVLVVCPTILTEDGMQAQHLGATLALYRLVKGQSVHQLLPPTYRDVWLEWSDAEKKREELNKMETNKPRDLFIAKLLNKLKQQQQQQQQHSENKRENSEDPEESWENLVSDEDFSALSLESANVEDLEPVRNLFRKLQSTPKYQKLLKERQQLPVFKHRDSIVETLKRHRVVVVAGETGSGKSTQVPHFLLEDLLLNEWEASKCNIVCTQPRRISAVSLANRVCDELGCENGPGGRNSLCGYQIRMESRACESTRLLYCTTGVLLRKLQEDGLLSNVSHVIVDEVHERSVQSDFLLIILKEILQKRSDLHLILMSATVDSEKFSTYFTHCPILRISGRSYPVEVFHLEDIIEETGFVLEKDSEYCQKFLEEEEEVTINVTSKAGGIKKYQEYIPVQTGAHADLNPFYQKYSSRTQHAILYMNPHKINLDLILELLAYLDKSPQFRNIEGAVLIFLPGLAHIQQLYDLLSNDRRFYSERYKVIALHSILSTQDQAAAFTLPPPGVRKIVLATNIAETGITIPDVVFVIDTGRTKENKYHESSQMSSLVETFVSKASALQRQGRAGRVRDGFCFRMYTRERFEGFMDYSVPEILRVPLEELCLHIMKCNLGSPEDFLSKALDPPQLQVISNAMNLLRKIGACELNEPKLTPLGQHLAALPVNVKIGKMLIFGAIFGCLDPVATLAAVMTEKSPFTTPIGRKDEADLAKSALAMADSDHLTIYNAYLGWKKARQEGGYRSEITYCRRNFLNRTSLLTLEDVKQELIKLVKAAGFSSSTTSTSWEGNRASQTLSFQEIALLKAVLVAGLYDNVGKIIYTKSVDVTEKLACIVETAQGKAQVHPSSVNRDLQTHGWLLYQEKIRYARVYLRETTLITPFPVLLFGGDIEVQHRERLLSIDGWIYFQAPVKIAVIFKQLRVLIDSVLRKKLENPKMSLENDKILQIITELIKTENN

Chain of GST-eIF3a (783–1382) (Q14152 783-1382): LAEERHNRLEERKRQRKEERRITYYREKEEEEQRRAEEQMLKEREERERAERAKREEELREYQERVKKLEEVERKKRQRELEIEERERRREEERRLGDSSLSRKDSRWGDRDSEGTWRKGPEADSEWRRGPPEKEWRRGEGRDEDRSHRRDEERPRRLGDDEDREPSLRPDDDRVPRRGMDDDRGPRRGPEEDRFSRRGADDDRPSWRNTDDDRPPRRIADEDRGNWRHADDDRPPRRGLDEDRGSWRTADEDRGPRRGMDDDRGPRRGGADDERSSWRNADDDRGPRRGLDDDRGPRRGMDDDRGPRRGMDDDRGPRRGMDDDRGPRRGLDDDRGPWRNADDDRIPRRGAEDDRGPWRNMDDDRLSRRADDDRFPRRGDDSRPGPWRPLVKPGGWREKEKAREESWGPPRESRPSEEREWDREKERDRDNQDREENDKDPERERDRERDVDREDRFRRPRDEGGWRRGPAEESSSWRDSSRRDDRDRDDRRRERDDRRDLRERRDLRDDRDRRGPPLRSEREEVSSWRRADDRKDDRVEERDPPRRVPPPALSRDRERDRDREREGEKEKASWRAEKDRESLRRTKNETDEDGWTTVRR

binding result [1]: binds
B1: eIF3b (1–300), His-tagged (domain or fragment, murine, UniProt Q8JZQ9 1-300, looked up)
chain: MQDAENVAVPEAAEERAEPARQQPASESPPTDEAAGSGGSEVGQTEDAEEDAEAGPEPEVRAKPAAQSEEETATSPAASPTPQSAERSPSQEPSAPGKAEAVGEQARGHPSAGAEEEGGSDGSAAEAEPRALENGEADEPSFSDPEDFVDDVSEEELLGDVLKDRPQEADGIDSVIVVDNVPQVGPDRLEKLKNVIHKIFSKFGKIINDYYPEEDGKTKGYIFLEYASPAHAVDAVKNADGYKLDKQHTFRVNLFTDFDKYMTISDEWDIPEKQPFKDLGNLRYWLEEAECRDQYSVIFE

binding result [2]: binds
B2: DHX29 (1–247), His-tagged (domain or fragment, UniProt Q7Z478 1-247, looked up)
chain: MGGKNKKHKAPAAAVVRAAVSASRAKSAEAGIAGEAQSKKPVSRPATAAAAAAGSREPRVKQGPKIYSFNSTNDSSGPANLDKSILKVVINNKLEQRIIGVINEHKKQNNDKGMISGRLTAKKLQDLYMALQAFSFKTKDIEDAMTNTLLYGGDLHSALDWLCLNLSDDALPEGFSQEFEEQQPKSRPKFQSPQIQATISPPLQPKTKTYEEDPKSKPKKEEKNMEVNMKEWILRYAEQQNEEEKNE

binding result [3]: binds
B3: GST-eIF3b (161–264) (domain or fragment, murine, UniProt Q8JZQ9 161-264, looked up)
chain: VLKDRPQEADGIDSVIVVDNVPQVGPDRLEKLKNVIHKIFSKFGKIINDYYPEEDGKTKGYIFLEYASPAHAVDAVKNADGYKLDKQHTFRVNLFTDFDKYMTI
